# Numbering of substitutions follows the chain as printed. Names may count otherwise.
# T1: cyno TfR extracellular domain (analogous construct to human TfR ecd) (cynomolgus monkey, UniProt Q5RDH6 87-760 (Pongo abelii entry))
# T1 construct: also called cynoTfR ecd
# T1 chain: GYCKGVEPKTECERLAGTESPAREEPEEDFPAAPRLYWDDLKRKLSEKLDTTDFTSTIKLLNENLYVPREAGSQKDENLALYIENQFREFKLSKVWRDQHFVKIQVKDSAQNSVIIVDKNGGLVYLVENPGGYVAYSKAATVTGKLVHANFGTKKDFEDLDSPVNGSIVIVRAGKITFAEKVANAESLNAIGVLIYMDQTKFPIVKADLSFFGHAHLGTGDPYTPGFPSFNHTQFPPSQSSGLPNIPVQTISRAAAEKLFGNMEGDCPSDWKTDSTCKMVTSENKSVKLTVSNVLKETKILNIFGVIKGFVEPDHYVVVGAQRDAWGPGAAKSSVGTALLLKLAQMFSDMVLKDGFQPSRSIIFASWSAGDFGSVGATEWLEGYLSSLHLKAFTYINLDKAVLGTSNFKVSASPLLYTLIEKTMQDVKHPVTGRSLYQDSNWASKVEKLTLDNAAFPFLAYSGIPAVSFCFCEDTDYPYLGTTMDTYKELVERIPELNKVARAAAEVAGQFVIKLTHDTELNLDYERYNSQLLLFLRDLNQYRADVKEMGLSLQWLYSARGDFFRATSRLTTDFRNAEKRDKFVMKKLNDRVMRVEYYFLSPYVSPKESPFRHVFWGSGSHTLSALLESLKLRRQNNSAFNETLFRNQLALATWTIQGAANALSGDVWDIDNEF
# B1: 5543 (antibody, V domains shown)
# VH: QLQLQESGPGLVKPSETLSLTCTVSGGSISSSSYYWGWIRQPPGKGLEWIGSIYYSGSTYYNPSLKSRVTISVDTSKNQFSLKLSSVTAADTAVYYCARVGHGISYFDLWGRGTLVTVSS
# VL: EIVLTQSPATLSLSPGERATLSCRASQSVSSYLAWYQQKPGQAPRLLIYDASNRATGIPARFSGSGSGTDFTLTISSLEPEDFAVYYCQQAYVWPPRTFGGGTKVEIK
# B2: 5643 (antibody, V domains shown)
# VH: B1 VH
# VL: B1 VL with A91S, Y92L, V93T
# B3: 5902 (antibody, V domains shown)
# VH: B1 VH with Y55R, Y60W
# VL: B1 VL with N53K, A91V, V93T
# B4: hu15G11.v5 IgG Ala variant D27A (HVR-L1) (antibody, V domains shown)
# VH: EVQLVQSGAEVKKPGASVKVSCKASGYTFTSYWMHWVRQAPGQRLEWIGEINPTNGRTNYIEKFKSRATLTVDKSASTAYMELSSLRSEDTAVYYCARGTRAYHYWGQGTMVTVSS
# VL: DIQMTQSPSSLSASVGDRVTITCRASANLYSNLAWYQQKPGKSPKLLVYDATNLADGVPSRFSGSGSGTDYTLTISSLQPEDFATYYCQHFWGTPLTFGQGTKVEIK
# notes: IgG in cell culture supernatant
# B5: hu15G11.v5 IgG Ala variant I51A (HVR-H2) (antibody, name in Kabat numbering, V domains shown)
# VH: B4 VH with I51A
# VL: B4 VL with A27D
# notes: as for B4
# B6: hu15G11.v5 IgG Ala variant D50A (HVR-L2) (antibody, V domains shown)
# VH: B4 VH
# VL: B4 VL with A27D, D50A
# notes: as for B4
# B7: hu15G11.v5 IgG Ala variant G26A (HVR-H1) (antibody, name in Kabat numbering, V domains shown)
# VH: B4 VH with G26A
# VL: B4 VL with A27D
# notes: as for B4
# B8: hu15G11.v5 IgG Ala variant F29A (HVR-H1) (antibody, name in Kabat numbering, V domains shown)
# VH: B4 VH with F29A
# VL: B4 VL with A27D
# notes: as for B4
# B9: hu15G11.v5 IgG Ala variant G49A (HVR-H2) (antibody, name in Kabat numbering, V domains shown)
# VH: B4 VH with G49A
# VL: B4 VL with A27D
# notes: as for B4
# B10: hu15G11.v5 IgG Ala variant E61A (HVR-H2) (antibody, name in Kabat numbering, V domains shown)
# VH: B4 VH with E62A
# VL: B4 VL with A27D
# notes: IgG in cell culture supernatant; Kabat numbers after 52a lie one below the linear count
# B11: hu15G11.v5 IgG Ala variant K62A (HVR-H2) (antibody, name in Kabat numbering, V domains shown)
# VH: B4 VH with K63A
# VL: B4 VL with A27D
# notes: as for B10
# B12: hu15G11.v5 IgG Ala variant K64A (HVR-H2) (antibody, name in Kabat numbering, V domains shown)
# VH: B4 VH with K65A
# VL: B4 VL with A27D
# notes: as for B10
# B13: hu15G11.v5 IgG Ala variant I60A (HVR-H2) (antibody, name in Kabat numbering, V domains shown)
# VH: B4 VH with I61A
# VL: B4 VL with A27D
# notes: as for B10
# B14: hu15G11.v5 IgG Ala variant D56A (HVR-L2) (antibody, V domains shown)
# VH: B4 VH
# VL: B4 VL with A27D, D56A
# notes: as for B4
# B15: hu15G11.v5 IgG Ala variant F63A (HVR-H2) (antibody, name in Kabat numbering, V domains shown)
# VH: B4 VH with F64A
# VL: B4 VL with A27D
# notes: as for B10
# B16: hu15G11.v5 IgG Ala variant E50A (HVR-H2) (antibody, name in Kabat numbering, V domains shown)
# VH: B4 VH with E50A
# VL: B4 VL with A27D
# notes: as for B4
# B17: 6266wt (Fab, V domains shown)
# VH: QVQLVQSGAEVKKPGSSVKVSCKASGGTLSGYGVSWVRQAPGQGLEWMGNIIPGFGTANYAQKFQGRVTITADESTSTAYMELSSLRSEDTAVYYCARSGGTKYGMLDVWGQGTMVTVSS
# VL: EIVMTQSPATLSVSPGERATLSCRASQSVSSNLAWYQQKPGQAPRLLIYGASTRATGIPARFSGSGSGTEFTLTISSLQSEDFAVYYCQQLILWPPRTFGGGTKVEIK
# notes: also called ADI6266
# B18: 6266.7 Fab (Fab, V domains shown)
# VH: B17 VH with G31H, F55I, M106E
# VL: B17 VL with T56Y, F83A
# B19: 6266.11 Fab (Fab, V domains shown)
# VH: B17 VH
# VL: B17 VL with T56Y
# B20: 6266.5 Fab (Fab, V domains shown)
# VH: B17 VH with G31H, F55I, K103Q
# VL: B17 VL with T53K, F83A
# B21: 6266.4 Fab (Fab, V domains shown)
# VH: B17 VH with G31H, F55I
# VL: B17 VL with T53K
# B22: 6266.3 Fab (Fab, V domains shown)
# VH: B17 VH with G31H, F55I
# VL: B17 VL with T56Y
# B23: 6266.8 Fab (Fab, V domains shown)
# VH: B17 VH with S30K, S99G
# VL: B17 VL with T56Y
# notes: not tied singly
# B24: 6266.14 Fab (Fab, V domains shown)
# VH: B17 VH with T57V, Y104W
# VL: B17 VL
# B25: 6266.6 Fab (Fab, V domains shown)
# VH: B17 VH with G31H, F55I, K103Q
# VL: B17 VL with T56Y, F83A
# B26: 6266.1 Fab (Fab, V domains shown)
# VH: B17 VH with G31H, F55I
# VL: B17 VL
# notes: not tied singly
# B27: 6266.15 Fab (Fab, V domains shown)
# VH: B17 VH with M106E
# VL: B17 VL
# B28: 6266.13 Fab (Fab, V domains shown)
# VH: B17 VH with V34M
# VL: B17 VL
# B29: 6266.9 Fab (Fab, V domains shown)
# VH: B17 VH with S30K, S99G
# VL: B17 VL with T53K
# B30: 6266.10 Fab (Fab, V domains shown)
# VH: B17 VH
# VL: B17 VL with T53K
# B31: 6266.12 Fab (Fab, V domains shown)
# VH: B17 VH with S30N
# VL: B17 VL
# B32: 6266.2 Fab (Fab, V domains shown)
# VH: B17 VH with G31H, F55I
# VL: B17 VL with T53K, F83A
# Biological target: BACE1 (HTRF long substrate and FRET short substrate assays of Example 9D)
# Assay: cell-based or functional assay
"EC50, FRET short substrate","EC50, HTRF long substrate",Binder
9.11 nM,30 nM,B1
1.41 nM,17.7 nM,B2

# Biological target: BACE1 in primary mouse cortical neurons (mouse, UniProt P56818 46-501)
# Sequence (P56818 46-501): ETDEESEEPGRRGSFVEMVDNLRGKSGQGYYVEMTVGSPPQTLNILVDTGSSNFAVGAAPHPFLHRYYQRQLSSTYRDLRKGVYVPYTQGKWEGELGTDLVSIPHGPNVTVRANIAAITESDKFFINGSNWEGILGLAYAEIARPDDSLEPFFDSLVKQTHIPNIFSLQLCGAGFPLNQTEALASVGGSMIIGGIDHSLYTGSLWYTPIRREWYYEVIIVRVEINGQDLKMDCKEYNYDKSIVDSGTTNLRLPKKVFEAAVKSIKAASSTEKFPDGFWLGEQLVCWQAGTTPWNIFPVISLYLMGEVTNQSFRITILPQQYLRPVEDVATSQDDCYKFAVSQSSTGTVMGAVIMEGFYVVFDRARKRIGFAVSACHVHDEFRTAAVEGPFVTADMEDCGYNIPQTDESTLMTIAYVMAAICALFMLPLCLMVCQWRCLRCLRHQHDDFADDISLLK
# Assay: cell-based or functional assay
"IC50, Abeta x-40 in mouse cortical neurons",maximal % inhibition of Abeta x-40,Binder
18.3 nM,65%,B1
9.71 nM,60%,B2
1.59 nM,67%,B3

# Biological target: T2, human TfR extracellular domain with N-terminal His tag (human, UniProt P02786 89-760)
# T2 construct: Biotinylated in some assays; also called huTfR; HuTfR
# T2 sequence (P02786 89-760 G142S): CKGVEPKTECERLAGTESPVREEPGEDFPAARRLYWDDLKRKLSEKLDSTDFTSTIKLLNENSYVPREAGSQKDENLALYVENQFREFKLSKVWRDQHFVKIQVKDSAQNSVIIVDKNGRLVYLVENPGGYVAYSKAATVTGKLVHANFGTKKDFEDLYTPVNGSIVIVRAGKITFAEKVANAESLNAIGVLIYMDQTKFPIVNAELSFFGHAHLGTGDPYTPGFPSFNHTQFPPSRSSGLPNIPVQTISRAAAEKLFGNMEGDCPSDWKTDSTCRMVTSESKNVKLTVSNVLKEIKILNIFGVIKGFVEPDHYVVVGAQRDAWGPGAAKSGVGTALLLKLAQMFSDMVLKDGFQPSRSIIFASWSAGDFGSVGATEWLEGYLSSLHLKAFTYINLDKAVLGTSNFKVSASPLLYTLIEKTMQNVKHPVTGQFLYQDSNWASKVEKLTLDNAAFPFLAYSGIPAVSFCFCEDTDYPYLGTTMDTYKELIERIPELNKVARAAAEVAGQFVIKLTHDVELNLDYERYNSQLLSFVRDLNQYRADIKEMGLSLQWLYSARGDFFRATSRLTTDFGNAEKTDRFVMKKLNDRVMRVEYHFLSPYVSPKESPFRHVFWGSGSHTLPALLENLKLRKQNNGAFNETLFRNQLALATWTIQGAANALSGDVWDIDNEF
# Assay: ELISA, TfR-coated plate, IgG in culture supernatant;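 further: human or cynomolgus TfR coated at 2 µg/mL, supernatant IgG titrated in 1:5 steps for 1 h, bound antibody read with HRP anti-human Fcγ and TMB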
# Protocol: (§1) The Hu/Cy binding ELISA was performed in maxisorp plates coated with 2 μg/ml of purified human or cyno TfR in PBS at 4° C. overnight. Plates were washed with PBS/0.05% Tween 20 and blocked using Superblock blocking buffer in PBS (Thermo Scientific, Hudson, N.H.). Cell culture supernatants containing the expressed Ala scan variant IgGs were serially diluted 1:5 and added to the wells for 1 h. Plates were washed with PBS/0.05% Tween 20 and 1:1000 diluted HRP-Goat-anti human Fcγ (Jackson ImmunoResearch) was added the plate and incubated for 1 hour at room temperature. Plates were washed with PBS/0.05% Tween 20 and detected using TMB substrate (BioFX Laboratories, Owings Mills).
row,EC50,Binder
1,0.2 ng/mL,B4
2,0.2 ng/mL,B5
3,0.2 ng/mL,B6
4,1.1 ng/mL,B7
5,1.5 ng/mL,B8
6,0.3 ng/mL,B9
7,0.2 ng/mL,B10
8,0.3 ng/mL,B11
9,0.3 ng/mL,B12
10,0.3 ng/mL,B13
11,0.3 ng/mL,B14
12,0.4 ng/mL,B15

# Biological target: T1, cyno TfR extracellular domain …
# Assay: as above
# Protocol: as §1
row,EC50,Binder
1,0.8 ng/mL,B4
2,0.6 ng/mL,B5
3,0.5 ng/mL,B6
4,6.1 ng/mL,B7
5,1.1 ng/mL,B9
6,0.6 ng/mL,B10
7,0.7 ng/mL,B11
8,410 ng/mL,B16
9,0.6 ng/mL,B12
10,0.7 ng/mL,B13
11,0.5 ng/mL,B14
12,0.6 ng/mL,B15

# Biological target: His-tagged BACE1 protein (Example 15) (Homo sapiens (Human), UniProt P56817 22-457)
# Sequence (P56817 22-457 limits assumed): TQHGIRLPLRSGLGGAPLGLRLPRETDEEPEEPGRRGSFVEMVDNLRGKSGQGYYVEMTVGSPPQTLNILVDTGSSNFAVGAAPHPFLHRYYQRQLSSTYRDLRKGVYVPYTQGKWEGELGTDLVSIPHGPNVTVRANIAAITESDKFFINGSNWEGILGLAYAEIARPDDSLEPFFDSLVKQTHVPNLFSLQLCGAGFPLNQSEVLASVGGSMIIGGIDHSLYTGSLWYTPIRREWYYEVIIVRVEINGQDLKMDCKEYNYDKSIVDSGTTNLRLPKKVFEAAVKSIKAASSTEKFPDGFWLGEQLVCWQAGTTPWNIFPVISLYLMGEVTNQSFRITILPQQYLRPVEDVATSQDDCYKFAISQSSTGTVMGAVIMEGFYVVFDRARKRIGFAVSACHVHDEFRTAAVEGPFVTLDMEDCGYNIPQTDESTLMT
# Assay: SPR (Biacore T200), Fab on captured His-BACE1;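 further: Single-cycle kinetics with serially diluted Fab flowed over BACE1 captured by anti-His antibody on a CM5 chip, rates fitted to a one-to-one Langmuir model, Kd derived as koff over kon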
# Protocol: The binding affinity of anti-BACE1 Fab antibodies by single-cycle kinetics was determined using surface plasmon resonance (SRP) measurement with a BIAcore™ T200 instrument. Briefly, series S sensor chip CM5 was activated with EDC and NHS reagents according to the supplier's instructions, and anti-His antibody was coupled to achieve approximately 1000 response units (RU), then following by blocking un-reacted groups with 1M ethanolamine. For kinetics measurements, His-tagged BACE1 protein was first injected at 10 μl/min flow rate to capture approximately 100 RU at 3 different flow cells (FC), except for FC1 (reference), and then 5-fold serial dilutions of Fab in HBS-P buffer (0.01M HEPES pH 7.4, 0.15M NaCl, 0.005% surfactant P20) from low (0.08 nM) to high (50 nM) were injected (flow rate: 30 μl/min) one after the other in the same cycle with no regeneration between injections. The sensorgram was recorded and subject to reference and buffer subtraction before evaluating by BIAcore™ T200 Evaluation Software (version 2.0). Association rates (kon) and dissociation rates (koff) were calculated using a simple one-to-one Langmuir binding model. The equilibrium dissociation constant (Kd) was calculated as the ratio koff/kon.
Kd,koff,kon,Binder
1.09 nM,0.000403 s⁻¹,371000 M⁻¹ s⁻¹,B17
0.62 nM,0.000333 s⁻¹,542000 M⁻¹ s⁻¹,B18
0.46 nM,0.00041 s⁻¹,891000 M⁻¹ s⁻¹,B19
0.53 nM,0.000228 s⁻¹,428000 M⁻¹ s⁻¹,B20
0.26 nM,0.00017 s⁻¹,638000 M⁻¹ s⁻¹,B21
0.29 nM,0.000142 s⁻¹,480000 M⁻¹ s⁻¹,B22
0.56 nM,0.000275 s⁻¹,488000 M⁻¹ s⁻¹,B23
0.57 nM,0.000474 s⁻¹,839000 M⁻¹ s⁻¹,B24
0.78 nM,0.000278 s⁻¹,356000 M⁻¹ s⁻¹,B25
0.24 nM,0.000161 s⁻¹,654000 M⁻¹ s⁻¹,B26
0.64 nM,0.000495 s⁻¹,774000 M⁻¹ s⁻¹,B27
0.56 nM,0.000411 s⁻¹,734000 M⁻¹ s⁻¹,B28
0.68 nM,0.000305 s⁻¹,445000 M⁻¹ s⁻¹,B29
0.69 nM,0.000506 s⁻¹,756000 M⁻¹ s⁻¹,B30
0.52 nM,0.000447 s⁻¹,854000 M⁻¹ s⁻¹,B31
0.58 nM,0.000142 s⁻¹,245000 M⁻¹ s⁻¹,B32

# From US20180057604A1 (Genentech, published 2018)
